According to PMC13065467, “Assembly and phosphoregulatory mechanisms of the budding yeast outer kinetochore KMN complex” (The Journal of Cell Biology, 2026):

Experiments:
[1] = test system: K^HB-RWDM^Dsn1Δ257_Δhead1; assay: ITC, Dsn1 peptide titrated into head 1-deleted complex; type: binding, S. cerevisiae; details: 25°C, 25 mM HEPES pH 7.5, 100 mM NaCl, 1 mM TCEP, syringe 0.3 mM, cell 0.025 mM, two experiments
[2] = test system: K^HB-RWDM^Dsn1Δ257_Mis12-3A; assay: ITC, Dsn1 peptide titrated into Mis12-3A mutant complex; type: binding, S. cerevisiae; details: ratio of ITC KD values, Mis12-3A mutant complex versus K^HB-RWDM^Dsn1Δ257
Protocol: Dsn1^228–254 and Dsn1^228–254,S240E,S250E peptides were synthesized by Alta BioScience with N-terminal acetylation and C-terminal GSAW extension and amidation. The final sequence of Dsn1^228–254 was […], and Dsn1^228–254,S240E,S250E was […]. All protein complexes and peptides used in a given experiment were dialyzed for a minimum of 16 h and/or buffer-exchanged by size-exclusion chromatography into the same batch of ITC buffer (25 mM HEPES, pH 7.5, 100 mM NaCl, 1 mM TCEP). All experiments were performed using an Auto-iTC200 instrument (Malvern Instruments) at 25°C. In each experiment, 360 μl of protein complex was pipetted into the calorimeter cell. The protein complex loaded into the calorimeter cell contained Knl1c:Mis12c^Mtw1c with Knl1^Spc105_HB-RWD and Dsn1^Δ1–257 and either wild-type Mis12^Mtw1 (K^HB-RWDM ^Dsn1Δ257) or Mis12^Mtw1_E69A,E73A,E77A mutant (K^HB-RWDM ^Dsn1Δ257_Mis12-3A). Wild-type constructs of all other Knl1c and Mis12c^Mtw1c subunits were included. Titration of either the Dsn1^228–254 or Dsn1^228-254,S240E,S250E peptide into the cell was then performed by an initial injection of 0.5 μl, followed by 19 further injections of 2.0 μl each. […] Titrations were performed in duplicate or triplicate, and reported KD and n values were calculated as an average from all replicate results.

[3] = molecular target: Knl1c:Mis12c^Mtw1c complex K^HB-RWDM^Dsn1Δ257_Mis12-3A (K^HB-RWDM^Dsn1Δ257 containing mutant … (S. cerevisiae, UniProt P53148 445-917)); Q04431 1-385; P40568 258-576; P39731 1-289; P47149 1-201; …, E69A | E73A | E77A (construct name; the text of the results says Asp77)); assay: ITC
[4] = molecular target: T1, Knl1c:Mis12c^Mtw1c complex K^HB-RWDM^Dsn1Δ226-2E (Dsn1 residues 1–226 deleted, with S240E and S250E … (S. cerevisiae, UniProt P53148 445-917; Q04431 1-385; P40568 227-576; P39731 1-289; P47149 1-201; …, S240E | S250E); assay: SEC; 4 μM Knl1c:Mis12c^Mtw1c complex mixed with 4 μM CENP-C^Mif2_1-63 or CENP-QU in KMN buffer, 30 min on ice; Superose 6 3.2/300 in 20 mM HEPES pH 7.5, 150 mM NaCl, 1 mM TCEP; fractions on SDS-PAGE; details: both partners purified
T1 construct: Knl1^Spc105_HB-RWD: Knl1^Spc105, S. cerevisiae S288c, residues 445-917; ZWINT^Kre28, S. cerevisiae S288c; no truncation stated; Dsn1^Δ1–226,S240E,S250E: Dsn1, S. cerevisiae S288c, residues 1-226 deleted, phosphomimetic mutations; Mis12^Mtw1, S. cerevisiae S288c; Nnf1, S. cerevisiae S288c; Nsl1, S. cerevisiae S288c; also called K^HB-RWDM^Dsn1Δ226,S240E,S250E; source: High-5 insect cells …

[5] = molecular target: T2, Knl1c:Mis12c^Mtw1c complex K^HB-RWDM^2E (full-length Dsn1 with S240E and S250E phosphomimetic mutations) (S. cerevisiae, UniProt P53148 445-917; Q04431 1-385; P40568 1-576; P39731 1-289; P47149 1-201; Q12143 …, S240E | S250E); assay: as above; details: both partners purified
T2 construct: Knl1^Spc105_HB-RWD: Knl1^Spc105, S. cerevisiae S288c, residues 445-917; ZWINT^Kre28, S. cerevisiae S288c; no truncation stated; Dsn1^S240E,S250E: full-length Dsn1, S. cerevisiae S288c, with phosphomimetic mutations; Mis12^Mtw1, S. cerevisiae S288c; Nnf1, S. cerevisiae S288c; Nsl1, S. cerevisiae S288c; also called KM^2E; K^HB-RWDM^S240E,S250E; source: High-5 insect cells (baculovirus), purified …

[6] = molecular target: T3, Knl1c:Mis12c^Mtw1c complex K^HB-RWDM^Dsn1Δ257 (Knl1^Spc105 residues 1–444 and Dsn1 residues 1–257 deleted) (S. cerevisiae, UniProt P53148 445-917; Q04431 1-385; P40568 258-576; P39731 1-289; P47149 1-201; …); assay: as above; details: both partners purified
T3 construct: Knl1^Spc105_HB-RWD: Knl1^Spc105, S. cerevisiae S288c, residues 445-917; ZWINT^Kre28, S. cerevisiae S288c; no truncation stated; Mis12^Mtw1, S. cerevisiae S288c; wild-type, no truncation stated; Nnf1, S. cerevisiae S288c; Nsl1, S. cerevisiae S288c; source: High-5 insect cells (two baculoviruses), purified (Strep-Tactin, SEC); copies: + + + + +

[7] = test system: K^HB-RWDM^2E; assay: analytical SEC reconstitution with K^HB-RWDM^2E; type: binding, S. cerevisiae; details: Superose 6 3.2/300, 4 μM each, pH 7.5, full-length Dsn1 S240E,S250E
Protocol: (§1) To test the effect of deleting or mutating regions of the Dsn1 N-terminal disordered domain on Mis12c^Mtw1c auto-inhibition, 4 μM concentrations of Knl1c:Mis12c^Mtw1c complexes containing Knl1^Spc105_HB-RWD and different Dsn1 constructs were mixed with 4 μM concentrations of either CENP-C^Mif2_1-63 or CENP-QU in KMN buffer. Knl1c:Mis12c^Mtw1c complexes used contained one of the following Dsn1 constructs: K^HB-RWDM, contained full-length and wild-type Dsn1; K^HB-RWDM^S240E,S250E, contained Dsn1^S240E,250E; K^HB-RWDM^Dsn1Δ226, contained Dsn1^Δ1–226; K^HB-RWDM^Dsn1Δ257, contained Dsn1^Δ1–257; K^HB-RWDM^Dsn1Δ226,S240E,S250E, contained Dsn1^Δ1–226,S240E,S250E. Protein mixtures were incubated together on ice for 30 min to attempt to reconstitute a protein complex. 100 μl of individual proteins or protein complexes or reconstitution mixtures was loaded onto a Superose 6 3.2/300 size-exclusion chromatography column (Cytiva) equilibrated in (20 mM HEPES, pH 7.5, 150 mM NaCl, 1 mM TCEP), and 100 μl eluate fractions were collected. Aliquots of each indicated eluate fraction were mixed 1:1 (volume/volume) with 2xLDS-PAGE loading buffer supplied by Thermo Fisher Scientific, supplemented with DTT, boiled for 3 min at 95°C, and analyzed by SDS-PAGE.

[8] = test system: K^HB-RWDM^Dsn1Δ226-2E; assay: analytical SEC reconstitution with K^HB-RWDM^Dsn1Δ226-2E; type: binding, S. cerevisiae; details: Superose 6 3.2/300, 4 μM each, pH 7.5, Dsn1 Δ1–226,S240E,S250E
Protocol: as §1

[9] = test system: K^HB-RWDM^Dsn1Δ226; assay: analytical SEC reconstitution with K^HB-RWDM^Dsn1Δ226; type: binding, S. cerevisiae; details: Superose 6 3.2/300, 4 μM each, pH 7.5, Dsn1 residues 1–226 deleted
Protocol: as §1

[10] = test system: K^HB-RWDM^Dsn1Δ257; assay: analytical SEC reconstitution with K^HB-RWDM^Dsn1Δ257; type: binding, S. cerevisiae; details: Superose 6 3.2/300, 4 μM each, pH 7.5, Dsn1 residues 1–257 deleted
Protocol: as §1

[11] = test system: KM2E; assay: SPR, binding to KM2E (review history, removed from manuscript); parameters: species or system S. cerevisiae; details: data removed from manuscript, review history only
[12] = test system: K^HB-RWDM; assay: analytical SEC reconstitution with K^HB-RWDM; type: binding, S. cerevisiae; details: Superose 6 3.2/300, 4 μM each, 20 mM HEPES pH 7.5, 150 mM NaCl, 1 mM TCEP, 30 min on ice
Protocol: as §1

Ac-PHYIQRTRERKKSIGSQRGRRLSMLASGSAW-NH2 [Dsn1^228-254]
binding (ITC) [1]: did not bind
increase of KD versus K^HB-RWDM^Dsn1Δ257 [2]: threefold

Ac-PHYIQRTRERKKSIGSQRGRRLSMLASGSAW-NH2 [Dsn1^228–254 peptide]
Kd [3]: 4060 nM

B1: CENP-C^Mif2 residues 1–63 (CENP-C^Mif2_1–63) (domain or fragment, S. cerevisiae, UniProt P35201 1-63, looked up)
chain: MDYMKLGLKSRKTGIDVKQDIPKDEYSMENIDDFFKDDETSLISMRRKSRRKSSLFLPSTLNG
notes: CENP-C^Mif2, S. cerevisiae S288c, residues 1-63; source: E. coli BL-21 CodonPlus-RIL, purified (HisTrap, Ulp1 cleavage, reverse IMAC, Resource S, SEC); not shown: 6xHis-SUMO, N-terminal, cleaved
binding result [4]: binds
binding result [5]: binds
binding result [6]: binds

B2: CENP-C^Mif2_1-63: recombinant N-terminal fragment of S. cerevisiae CENP-C^Mif2 comprising residues 1–63 (protein)
chain: B1 chain
modifications: left off: 6xHis-SUMO, N-terminal, cleaved
binding by SEC [7]: sufficient to abolish Mis12c^Mtw1c auto-inhibition
binding by SEC ([7]; listed as CENP-C (residues 1-63)): bound KM2E
binding by SEC [8]: sufficient to abolish Mis12c^Mtw1c auto-inhibition
binding by SEC [9]: did not bind
binding by SEC [10]: did interact
Kd [11]: 260 nM
binding by SEC ([12]; full-length wild-type Dsn1): did not bind
binding by SEC ([12]; full-length wild-type Dsn1, listed as CENP-C N-terminus (residues 1-63)): did not
